The text below walks through data of patent US20220307010A1 (TWIST BIOSCIENCE, published 2022).

Assay [1] concerns the target T1, TIGIT (T cell immunoreceptor with Ig and ITIM domains) (human, UniProt Q495A1 22-141, limits assumed).
T1 construct: also called hTIGIT; human TIGIT
T1 sequence (looked up): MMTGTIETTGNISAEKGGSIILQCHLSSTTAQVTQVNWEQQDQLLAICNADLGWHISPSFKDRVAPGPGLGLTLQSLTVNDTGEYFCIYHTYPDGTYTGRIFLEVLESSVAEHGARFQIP
Description: ELISA. In general terms: An ELISA detects its analyte on a solid surface through an enzyme-linked reagent.

Assay [2] concerns the target T1, TIGIT (T cell immunoreceptor with Ig …). Nature of the assay: SPR kinetics.

B1: TIGIT-211-15 (antibody, V domains shown)
VH: EVQLLESGGGLVQPGGSLRLSCAASGFTFSSAAMSWVRQAPGKGLEWVSGISPSGGITTYADSVKGRFTISRDNSKNTLYLQMNSLRAEDTAVYYCASLSRGYWGQGTLVTVSS
VL: DIQMTQSPSSLSASVGDRVTITCQSSQSVYSNNELSWYQQKPGKAPKLLIYGTSYRYSGVPSRFSGSGSGTDFTLTISSLQPEDFATYYCSSWAGSRSGTVFGQGTKVEIK
B1: in assay [1], the ELISA is 11.3. Besides, in assay [2], the equilibrium dissociation constant (Kd) was 301 nM, the off-rate (koff) is 0.00712 s⁻¹ and the kon came to 23600 M⁻¹ s⁻¹.

For orientation: Kd means the constant that tells how readily two partners part at equilibrium. High values mean lower affinity, low ones higher affinity. As usually defined, the koff is a measure of how fast the partners let go of each other. High values mean a short-lived complex, low ones a long-lived complex. The kon is the second-order rate constant of association. Read a high kon as faster complex formation.
